The text below walks through data of US8030017B2, “Thermostable luciferases and methods of production” (Promega Corporation, priority 1997, dated 2011).

The nature of data set [1]: Stability of luciferase activity in cell lysates at room temperature (with Triton X-100). The class given is physicochemical. The conditions noted are these: over 5 hours at room temperature. How it is done: Although the luminescence activity of LucPpl within colonies of E. coli appeared to be thermostable to above 60° C., in lysates these luciferases had relatively low stability. They were particularly unstable in the presence of Triton X-100 detergent. When lysates are prepared containing the commonly used firefly luciferase, the enzyme retains greater than 90% activity over 5 hours at room temperature. In contrast, the activity of the LucPpl luciferases would decrease several fold over the same period.
The thermostability of the mutant luciferases in cell lysates was compared at room temperature (FIG. 63). Dilute lysates were buffered at pH 7.5 and contained 1% Triton X-100; typical conditions for lysates of mammalian cells.

A short description of data set [2]: Retention of luminescence activity at pH 4.5 and 48° C. The class given is physicochemical. The note with it: for thermostability relative to Luc90-1B5: pH 4.5 and 48° C.; for half-life: pH 4.5 and 48° C. (FIG. 54B). On the procedure: Three populations of random mutants were produced using clone Luc90-1B5 as a template. These three populations were screened on the robot as experiments 114, 115, and 117. […] These screening conditions were biased to select clones that have increased retention of luminescence activity over time at pH 4.5 at 48° C. and increased luminescence activity when assayed at pH 7.1 with 10 μM ATP. Seventeen clones from experiment 114, seven clones from experiment 115, and ten clones from experiment 116 were shuffled together using sPCR and selected mutants from this screen were run on the robot as experiment 117. Eighteen clones were selected from experiment 117.

The nature of data set [3]: Assay to detect resistance to luciferase inhibitor (luciferin breakdown products). It counts as biochemical. The note with it: luciferin degradation products (FIG. 61). On the procedure: A 10 mM stock solution of luciferin is incubated at 50° C. in 50 mM HEPES, pH 7.8, to accelerate the production of luciferin breakdown products. At different time points an aliquot is removed and then placed at −20° C. After incubation is complete, assay reagent (100 μM Luciferin, 1 μM ATP, 50 mM HEPES, pH 7.8 and 8 mM MgSO4) is prepared with luciferin from each of the different time points and a diluted lysate is then assayed with each assay reagent.
The lysate is prepared as follows. Overnight cultures of clones to be tested are prepared in LB supplemented with 100 μg/ml AMP. The cultures are diluted 1:10 in M-9 minimal media supplemented with 1 mM IPTG, 100 μg/ml AMP and grown for 3 hours at 30° C. Forty-five μl of cells is mixed with 20 μl of Buffer A and frozen. The mixture is thawed, 175 μl of Buffer B added, and the resulting mixture diluted 1:10 in Buffer C. A regression of luminescence versus time of luciferin incubation is then calculated, and from this graph half-life is extrapolated. A longer half-life means that the mutant being tested is more resistant to luciferin breakdown products.

A short description of data set [4]: Michaelis-Menten constant for ATP of purified mutants. The class given is biochemical. The note with it: purified enzyme. An excerpt:
(§1) Substrate binding was screened by measuring an apparent composite Km (see Example 2) for luciferin and ATP. […] The Km for luciferin rose while the Km for ATP declined (Table 3). The reason for this change is unknown, although it can be speculated that more efficient release of oxyluciferin or luciferin inhibitors could lead to more rapid enzyme turnover.
(§2) Protein purification: Four mutants that are described herein (Luc[T249M], Luc49-7C6, Luc78-0B10, and Luc90-1B5) were purified using a previously published procedure (Hastings et al., 1996).

A short description of data set [5]: Michaelis-Menten constant for luciferin of purified mutants. The class given is biochemical. The conditions noted are these: purified enzyme.
Excerpt: as §1, §2

The subject of a further data set is colonies of E. coli. In words: In vivo luminescence of recombinant colonies of E. coli (visual screen). The class given is cell-based. An excerpt:
Five to seven nitrocellulose disks having 200-500 colonies per disk (1000-3500 colonies total) are screened per 2 microplates (176 clones) (Wood and DeLuca, 1987). The clones are screened at high temperatures using standard screening conditions.
Screening method: In the qualitative visual screen, colonies were selected only for their ability to sustain relatively bright luminescence. The thermal stability of the luciferase within the colonies of E. coli was progressively challenged in successive rounds of evolution by increasing the temperature of the screen. The selected colonies were inoculated into wells of 96-well plates each containing 200 μl of growth medium.
JM109 clones (from a transformation reaction) are plated onto nitrocellulose filters placed on LB amp plates at a screening density of about 500 colonies per plate.
The nitrocellulose filter is lifted on one side and 500 μl of 10 mM IPTG is added to each of the plates. The filter is then placed back onto the plate to allow diffusion of the IPTG into the colonies containing the different mutant luciferase genes. The plates are then incubated for about 4 hours at room temperature.
One (1) ml of a solution contains 1 mM luciferin and 100 mM sodium citrate is pipetted onto a slide warmer that is set at 50° C. […]

Data set [6] in a line: Thermostability (half-life, retained activity) of luciferases incubated in aqueous solution at different temperatures. The class given is physicochemical. The note with it: purified enzyme.
Excerpt: As defined herein, a “thermostable” enzyme, e.g., a luciferase, or an enzyme which has “thermostability”, is an enzyme which under certain conditions, e.g., at certain temperature, in aqueous solution and/or for certain periods of time, has an increased retention of activity relative to a reference enzyme. For example, for a thermostable luciferase, a reference luciferase may be native wild-type luciferase or recombinant wild-type luciferase. Preferably, for beetle luciferases, the activity is luminescence under conditions of saturation with luciferin and ATP. One measure of thermostability of an enzyme is the half-life of the enzyme in an aqueous solution (the time over which 50% of the activity is lost) at a stated temperature.
as §2
[…] Enzyme stability was determined from diluted proteins incubated at different temperatures, and aliquots were removed at different time points. A linear regression of the natural log of the luminescence and time was calculated. Half-life was calculated as the 1n(0.5)/slope of the regression.

As to “firefly luciferase: the commonly used firefly luciferase”, in data set [1], the “activity retained in lysates” value is “greater than 90%”.

B1: Luc133-1B2: mutant luciferase, SEQ ID NO:44 (protein)
chain: MADKNILYGPEPFYPLEDGTAGEQMFDALSRYADIPGCIALTNAHTKENVLYEEFLKLSCRLAESFKKYGLKQNDTIAVCSENSLQFFLPVIASLYLGIIVAPVNDKYIERELIHSLGIVKPRIVFCSKNTFQKVLNVKSKLKSIETIIILDLNDDLGGYQCLNNFISQNSDSNLDVKKFKPYSFNRDDQVALIMFSSGTTGLPKGVMLTHKNIVARFSIAKDPTFGNAINPTSAILTVIPFHHGFGMMTTLGYFTCGFRVVLMHTFEEKLFLQSLQDYKVESTLLVPTLMAFLAKSALVEKYDLSHLKEIASGGAPLSKEIGEMVKKRFKLNFVRQGYGLTETTSAVLITPKGDAKPGSTGKIVPFHAVKVVDPTTGKILGPNEPGELYFKGPMIMKGYYNNEEATKAIIDNDGWLRSGDIAYYDNDGHFYIVDRLKSLIKYKGYQVAPAEIEGILLQHPYIVDAGVTGIPDEAAGELPAAGVVVQTGKYLNEQIVQDYVASQVSTAKWLRGGVIFLDEIPKGSTGKIDRKVLRQMLEKHTNG
modifications: Mutant luciferase
Turning to B1, in data set [2], the “thermostability relative to Luc90-1B5” value is given as “increased thermostability” and the half-life entry is “about 20 minutes”. In data set [3], the “resistance to inhibitor relative to Luc90-1B5” value is reported as “increased resistance to inhibitor”.

B2: Luc146-1H2: mutant luciferase, SEQ ID NO:45 (protein)
chain: MADKNILYGPEPFYPLEDGTAGEQMFDALSRYAAIPGCIALTNAHTKENVLYEEFLKLSCRLAESFKKYGLKQNDTIAVCSENSLQFFLPVIASLYLGIIVAPVNDKYIERELIHSLGIVKPRIVFCSKNTFQKVLNVKSKLKSIETIIILDLNEDLGGYQCLNNFISQNSDSNLDVKKFKPYSFNRDDQVASIMFSSGTTGLPKGVMLTHKNIVARFSIAKDPTFGNAINPTSAILTVIPFHHGFGMMTTLGYFTCGFRVVLMHTFEEKLFLQSLQDYKVESTLLVPTLMAFLAKSALVEKYDLSHLKEIASGGAPLSKEIGEMVKKRFKLNFVRQGYGLTETTSAVLITPKGDAKPGSTGKIVPLHAVKVVDPTTGKILGPNEPGELYFKGPMIMKGYYNNEEATKAIIDNDGWLRSGDIAYYDNDGHFYIVDRLKSLIKYKGYQVAPAEIEGILLQHPYIVDAGVTGIPDEAAGELPAAGVVVQTGKYLNEQIVQDYVASQVSTAKWLRGGVKFLDEIPKGSTGKIDRKVLRQMLEKHTNG
modifications: Mutant luciferase
Turning to B2, in data set [2], the “thermostability relative to Luc90-1B5” value was “increased thermostability” and the half-life result is listed as “about 62 minutes”. Besides, the “resistance to inhibitor relative to Luc90-1B5” value in data set [3] is recorded as “increased resistance to inhibitor”.

B3: LucPpe2[T249M]: LucPpe2 firefly luciferase (Photuris pennsylvanica) with mutation Thr to Met at residue 249, SEQ ID NO:25 (protein)
chain: MEDKNILYGPEPFYPLADGTAGEQMFYALSRYADISGCIALTNAHTKENVLYEEFLKLSCRLAESFKKYGLKQNDTIAVCSENGLQFFLPLIASLYLGIIAAPVSDKYIERELIHSLGIVKPRIIFCSKNTFQKVLNVKSKLKYVETIIILDLNEDLGGYQCLNNFISQNSDINLDVKKFKPNSFNRDDQVALVMFSSGTTGVSKGVMLTHKNIVARFSHCKDPTFGNAINPTTAILTVIPFHHGFGMMTTLGYFTCGFRVALMHTFEEKLFLQSLQDYKVESTLLVPTLMAFFAKSALVEKYDLSHLKEIASGGAPLSKEIGEMVKKRFKLNFVRQGYGLTETTSAVLITPDTDVRPGSTGKIVPFHAVKVVDPTTGKILGPNETGELYFKGDMIMKGYYNNEEATKAIINKDGWLRSGDIAYYDNDGHFYIVDRLKSLIKYKGYQVAPAEIEGILLQHPYIVDAGVTGIPDEAAGELPAAGVVVQTGKYLNEQIVQNFVSSQVSTAKWLRGGVKFLDEIPKGSTGKIDRKVLRQMFEKHKSKL
modifications: Mutant luciferase
By Km is commonly meant the concentration of substrate that gives half-maximal velocity. For the molecule B3, the Km in data set [4] worked out at 18 µM; in data set [5], 0.32 µM. The “light produced in vivo when expressed in E. coli, relative to LucPpe2” value in the data set on colonies of E. coli is “approximately 5 fold”. For the same molecule, the “Thermostability Of Luciferase Activity (Half-Life In Hours)” value in data set [6] (37° C.) is 35.4 min; in data set [6] (50° C.), 0.6 min; in data set [6] (Room Temperature (about 25° C.)), 6600 min.
